Test results taken from publication doi:10.1101/2022.12.09.519731 (bioRxiv, 2022).
Values joined by “and” are separate entries in the source; they are usually repeats but may differ in a detail not shown here. Identical values can stand only once.

Legend:
[1] = target: MalE-RomR (Myxococcus xanthus); assay: mass photometry
[2] = target: MalE-MglC (Myxococcus xanthus); assay: mass photometry
MglA-His6 = target: T1, MglA-His6 (Myxococcus xanthus, UniProt Q1DB04 1-195); assay: pull-down
T1 sequence: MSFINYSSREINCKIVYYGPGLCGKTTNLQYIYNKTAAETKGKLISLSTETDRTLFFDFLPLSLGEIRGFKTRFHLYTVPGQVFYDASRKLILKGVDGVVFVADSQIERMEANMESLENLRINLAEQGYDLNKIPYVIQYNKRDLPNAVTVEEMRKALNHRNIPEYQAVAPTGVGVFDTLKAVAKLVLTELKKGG

What does the source list for MalE-RomR (natural protein)?
stoichiometry N [1]: 3 and 2; stoichiometry N (RomR:MglC (2:2)) [2]: 1; stoichiometry N (RomR:MglC (3:2)) [2]: 1.5

MalE-MglC (natural protein) was tested. Which stoichiometry N [2] did it give?
Its stoichiometry N is 2.

B1: His6-MglB (natural protein, Myxococcus xanthus)
chain: MGTQLVMYEEEFTKINAVCDRLTKDANAKVVFLVDKNGQLISSAGQTQNIDTTSLASLTAGNVAAMGGLAKLIGENEFPNQFHEGAKDSLYMTIVGSRVVLVVIFDNRTSLGLVRLRIKKASDELTKIFESLVKKTDSPGAGSPFAEISDDDIDNLFSE
Does B1 bind (MglA-His6)?
Result: binds
